# Values quoted from earlier work, collected in article PMC5992718.
# Molecular target: PD-L1 (Homo sapiens) (UniProt Q9NZQ7)
# Sequence of UniProt Q9NZQ7 (Q9NZQ7 19-238): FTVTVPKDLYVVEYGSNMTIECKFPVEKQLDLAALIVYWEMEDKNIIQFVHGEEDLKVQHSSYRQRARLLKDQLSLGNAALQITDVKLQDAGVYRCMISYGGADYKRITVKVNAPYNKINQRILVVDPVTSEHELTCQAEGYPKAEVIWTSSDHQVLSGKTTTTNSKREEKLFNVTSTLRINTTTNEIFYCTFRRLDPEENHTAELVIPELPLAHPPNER
substance,measurement,value
PD-1 (from UniProt Q02242),Kd,29.8 µM
